Results as given in patent publication US20110200629A1.

Biological target: T1, HLA-A0201 (human), P04439
T1 chain: not shown

Binder: RGYVYQGL (modifications not checked) [murine H-2 Kb binding peptide VSV8 (RGYVYQGL, SEQ ID NO:6)]
- % MFI increase: 5.6%
